The values that follow come from patent publication EP0699075B1.

The target of test [1] is purified recombinant soluble tissue factor (UniProt P13726). The test can be described thus: cell-based or functional assay.
For test [2], the target named is cell-surface tissue factor on rat vascular smooth muscle cells (rat) (UniProt P42533). Description: cell-based or functional assay.
Chain of UniProt P42533 (P42533 29-295): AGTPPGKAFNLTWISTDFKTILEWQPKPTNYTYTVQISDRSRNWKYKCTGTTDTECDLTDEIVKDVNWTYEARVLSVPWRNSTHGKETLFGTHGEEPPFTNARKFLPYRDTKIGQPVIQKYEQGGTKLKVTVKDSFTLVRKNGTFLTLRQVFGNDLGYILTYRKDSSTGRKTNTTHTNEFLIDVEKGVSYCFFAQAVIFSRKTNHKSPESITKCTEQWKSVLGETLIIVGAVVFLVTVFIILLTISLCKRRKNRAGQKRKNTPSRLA

Chain of UniProt P13726 (P13726 33-251 limits assumed): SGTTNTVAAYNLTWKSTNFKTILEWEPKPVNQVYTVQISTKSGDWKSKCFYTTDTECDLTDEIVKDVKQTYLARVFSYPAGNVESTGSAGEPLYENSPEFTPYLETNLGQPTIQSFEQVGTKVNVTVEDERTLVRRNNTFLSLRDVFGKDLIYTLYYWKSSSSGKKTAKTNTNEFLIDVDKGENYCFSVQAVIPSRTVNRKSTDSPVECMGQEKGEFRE

Regarding DEGR-Factor VIIa (enzyme), in test [1], the OD405, Factor Xa chromogenic activity (S-2222), DEGR-Factor VIIa 0 nM with 100 nM Factor VIIa and soluble tissue factor (cell read as 0 | 0.810) was 0.81 OD405; the OD405, Factor Xa chromogenic activity (S-2222), DEGR-Factor VIIa 5 nM with 100 nM Factor VIIa and soluble tissue factor (cell read as 5 | 0.750) is 0.75 OD405; the OD405, Factor Xa chromogenic activity (S-2222), DEGR-Factor VIIa 10 nM with 100 nM Factor VIIa and soluble tissue factor (cell read as 10 | 0.609) came out at 0.609 OD405; the OD405, Factor Xa chromogenic activity (S-2222), DEGR-Factor VIIa 20 nM with 100 nM Factor VIIa and soluble tissue factor (cell read as 20 | 0.296) was determined as 0.296 OD405. For the same substance, in test [1], the OD405, Factor Xa chromogenic activity (S-2222), DEGR-Factor VIIa 40 nM with 100 nM Factor VIIa and soluble tissue factor (cell read as 40 | 0.167) turned out to be 0.167 OD405; the OD405, Factor Xa chromogenic activity (S-2222), DEGR-Factor VIIa 80 nM with 100 nM Factor VIIa and soluble tissue factor (cell read as 80 | 0.083) stood at 0.083 OD405; the OD405, Factor Xa chromogenic activity (S-2222), DEGR-Factor VIIa 160 nM with 100 nM Factor VIIa and soluble tissue factor (cell read as 160 | 0.055) is 0.055 OD405. For the same substance, in test [2], the OD405, Factor Xa chromogenic activity (S-2222) on rat smooth muscle cells, DEGR-Factor VIIa 0.00 nM coincubated with 100 nM Factor VIIa came to 0.208 OD405; the OD405, Factor Xa chromogenic activity (S-2222) on rat smooth muscle cells, DEGR-Factor VIIa 0.39 nM coincubated with 100 nM Factor VIIa is 0.176 OD405; the OD405, Factor Xa chromogenic activity (S-2222) on rat smooth muscle cells, DEGR-Factor VIIa 1.56 nM coincubated with 100 nM Factor VIIa was 0.116 OD405; the OD405, Factor Xa chromogenic activity (S-2222) on rat smooth muscle cells, DEGR-Factor VIIa 6.25 nM coincubated with 100 nM Factor VIIa came to 0.073 OD405. In test [2], the OD405, Factor Xa chromogenic activity (S-2222) on rat smooth muscle cells, DEGR-Factor VIIa 25.00 nM coincubated with 100 nM Factor VIIa is 0.026 OD405; the OD405, Factor Xa chromogenic activity (S-2222) on rat smooth muscle cells, DEGR-Factor VIIa 100.00 nM coincubated with 100 nM Factor VIIa worked out at 0.014 OD405; the OD405, Factor Xa chromogenic activity (S-2222) on serum-stimulated rat smooth muscle cells, 10 nM Factor VIIa + 100 nM DEGR-Factor VIIa is 0.073 OD405; the inhibition of chromogenic activity at a 1:1 molar ratio of DEGR-Factor VIIa:Factor VIIa on rat smooth muscle cells came out at 95%.
For recombinant human Factor VIIa (enzyme), in test [2], the OD405, Factor Xa chromogenic activity (S-2222) on PDGF-BB-stimulated rat smooth muscle cells, 10 nM Factor VIIa, cells washed before Factor X was added came to 0.36 OD405; the OD405, Factor Xa chromogenic activity (S-2222) on rat smooth muscle cells stimulated with 10% FCS, 10 nM Factor VIIa, cells washed before Factor X was added was determined as 0.342 OD405; the OD405, Factor Xa chromogenic activity (S-2222) on rat smooth muscle cells, Factor VIIa 0.10 nM was found to be 0.005 OD405; the OD405, Factor Xa chromogenic activity (S-2222) on rat smooth muscle cells, Factor VIIa 0.39 nM was determined as 0.025 OD405. In test [2], this substance had an OD405, Factor Xa chromogenic activity (S-2222) on rat smooth muscle cells, Factor VIIa 1.56 nM of 0.058 OD405; an OD405, Factor Xa chromogenic activity (S-2222) on rat smooth muscle cells, Factor VIIa 6.25 nM of 0.111 OD405; an OD405, Factor Xa chromogenic activity (S-2222) on rat smooth muscle cells, Factor VIIa 25.00 nM of 0.154 OD405; an OD405, Factor Xa chromogenic activity (S-2222) on rat smooth muscle cells, Factor VIIa 100.00 nM of 0.208 OD405. In test [2], this substance returned an OD405, Factor Xa chromogenic activity (S-2222) on serum-stimulated rat smooth muscle cells, 10 nM Factor VIIa alone of 0.342 OD405 and an OD405, Factor Xa chromogenic activity (S-2222) on unstimulated rat smooth muscle cells (Intrinsic), 10 nM Factor VIIa, cells washed before Factor X was added of 0.247 OD405.
